Source: paper PMC7320042
Like-named read-outs stand apart in the source and are kept apart here. Each block holds one binder with its values, some of them ahead of it.

Experiments:
recombinant trypsin [1] = molecular target: recombinant trypsin (UniProt P00761); assay: enzyme inhibition titration; trypsin (1.35 mg/mL) inhibited by increasing contents of rSKTI; residual activity on BAEE, 67 mM phosphate buffer pH 7.6, 25 °C; ratio worked out from the concentrations of trypsin and rSKTI
recombinant trypsin [2] = molecular target: recombinant trypsin (UniProt P00761); assay: enzyme inhibition kinetics (Lineweaver-Burk); trypsin (1.35 mg/mL stock) activity on BAEE (0.01-0.075 mM) with and without SKTI or rSKTI (0.63 mg/mL stock); 25 °C, 67 mM phosphate buffer pH 7.6; KI from Vmax/V'max = 1 + [I]/KI
recombinant trypsin [3] = molecular target: recombinant trypsin (UniProt P00761)
recombinant trypsin [4] = molecular target: recombinant trypsin (UniProt P00761); assay: enzyme inhibition kinetics (Lineweaver-Burk); trypsin (1.35 mg/mL stock) activity on BAEE (0.01-0.075 mM) with and without SKTI or rSKTI (0.63 mg/mL stock); 25 °C, 67 mM phosphate buffer pH 7.6; KI from Vmax/V'max = 1 + [I]/KI; remark: listed apart in the source

UniProt P00761, sequence (P00761 whole entry): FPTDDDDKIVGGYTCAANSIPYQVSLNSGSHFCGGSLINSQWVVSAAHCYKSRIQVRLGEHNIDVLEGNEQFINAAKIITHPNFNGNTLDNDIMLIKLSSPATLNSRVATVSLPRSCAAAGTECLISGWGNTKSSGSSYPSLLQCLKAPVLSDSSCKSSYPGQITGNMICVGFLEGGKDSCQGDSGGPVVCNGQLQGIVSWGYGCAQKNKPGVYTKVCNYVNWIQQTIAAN

stoichiometry N (recombinant trypsin [1]): 1
Ki (recombinant trypsin [2]): 2290 nM
inhibition of trypsin (1.35 mg/mL) activity on BAEE by increasing rSKTI: IC50, the amount of rSKTI when half trypsin activity was inhibited; activity completely inhibited at 1.5 mg/mL rSKTI (recombinant trypsin [3]): 500 µg/mL
Ki (recombinant trypsin [4]): 2200 nM
B1: recombinant soybean Kunitz trypsin inhibitor (natural protein)
chain: DFVLDNEGNPLENGGTYYILSDITAFGGIRAAPTGNERCPLTVVQSRNELDKGIGTIISSPYRIRFIAEGHPLSLKFDSFAVIMLCVGIPTEWSVVEDLPEGPAVKIGENKDAMDGWFRLERVSDDEFNNYKLVFCPQQAEDDKCGDIGISIDHDDGTRRLVVSKNKPLVVQFQKLDKESL

Ki (recombinant trypsin [4]): 1670 nM
B2: natural soybean Kunitz trypsin inhibitor (natural protein)
chain: B1 chain
